Test system: O=C(Cc1cccs1)N[C@@H]1C(=O)N2C(C(=O)O)=C(/C=C/c3ccc([N+](=O)[O-])cc3[N+](=O)[O-])CS[C@H]12
Experiment: purified protein
Assay type: biochemical, Acinetobacter baumannii

“ADC-7 β-lactamase (Acinetobacter-derived cephalosporinase) (Acinetobacter baumannii)” was tested, and the Km was 21.2 µM.

From PMC4263437
